{"source": "patent US20100160262", "proteins": {"B1": {"name": "human SIRT1 with a C-terminal FLAG tag (protein)", "chain": "MADEAALALQPGGSPSAAGADREAASSPAGEPLRKRPRRDGPGLERSPGEPGGAAPEREVPAAARGCPGAAAAALWREAEAEAAAAGGEQEAQATAAAGEGDNGPGLQGPSREPPLADNLYDEDDDDEGEEEEEAAAAAIGYRDNLLFGDEIITNGFHSCESDEEDRASHASSSDWTPRPRIGPYTFVQQHLMIGTDPRTILKDLLPETIPPPELDDMTLWQIVINILSEPPKRKKRKDINTIEDAVKLLQECKKIIVLTGAGVSVSCGIPDFRSRDGIYARLAVDFPDLPDPQAMFDIEYFRKDPRPFFKFAKEIYPGQFQPSLCHKFIALSDKEGKLLRNYTQNIDTLEQVAGIQRIIQCHGSFATASCLICKYKVDCEAVRGDIFNQVVPRCPRCPADEPLAIMKPEIVFFGENLPEQFHRAMKYDKDEVDLLIVIGSSLKVRPVALIPSSIPHEVPQILINREPLPHLHFDVELLGDCDVIINELCHRLGGEYAKLCCNPVKLSEITEKPPRTQKELAYLSELPPTPLHVSEDSSSPERTSPPDSSVIVTLLDQAAKSNDDLDVSESKGCMEEKPQEVQTSRNVESIAEQMENPDLKNVGSSTGEKNERTSVAGTVRKCWPNRVAKEQISRRLDGNQYLFLPPNRYIFHGAEVYSDSEDDVLSSSSCGSNSDSGTCQSPSLEEPMEDESEIEEFYNGLEDEPDVPERAGGAGFGTDGDDQEAINEAISVKQEVTDMNYPSNKS"}}, "biological_target": "enzymatically [3H] acetylated histone H3 peptide (amino acids 1-24), P68431", "data": [{"protein": "B1", "values": [{"measurement": "standard histone deacetylase assay (radioactive, H3 peptide substrate)", "value": "These enzymes also deacetylate histones as determined in a standard histone deacetylase assay"}]}]}
